Assay results: the supplement of paper PMC11246515
± gives the standard deviation of the averaged measurements.

Assay: total protein half-life in vivo (active degradation + dilution); higher = more stable protein
[1] = E. coli NCM3722 delta-clpP delta-lon delta-hslV, growth: N-lim chemostat, doubling time 6 h
[2] = E. coli NCM3722 delta-clpP, growth: N-lim chemostat, doubling time 6 h
[3] = E. coli NCM3722 delta-hslV, growth: N-lim chemostat, doubling time 6 h
[4] = E. coli NCM3722 delta-lon, growth: N-lim chemostat, doubling time 6 h
[5] = E. coli NCM3722 delta-smpB, growth: N-lim chemostat, doubling time 6 h
[6] = wild type E. coli NCM3722, growth: C-lim chemostat, doubling time 3 h
[7] = wild type E. coli NCM3722, growth: C-lim chemostat, doubling time 6 h
[8] = wild type E. coli NCM3722, growth: C-lim chemostat, doubling time 12 h
[9] = wild type E. coli NCM3722, growth: N-lim chemostat, doubling time 6 h
[10] = wild type E. coli NCM3722, growth: N-lim chemostat, doubling time 12 h
[11] = wild type E. coli NCM3722, growth: P-lim chemostat, doubling time 6 h
[12] = wild type E. coli NCM3722, growth: P-lim chemostat, doubling time 12 h

Sequence | total protein half-life in vivo [1] [h] | total protein half-life in vivo [2] [h] | total protein half-life in vivo [3] [h] | total protein half-life in vivo [4] [h] | total protein half-life in vivo [5] [h] | total protein half-life in vivo [6] [h] | total protein half-life in vivo [7] [h] | total protein half-life in vivo [8] [h] | total protein half-life in vivo [9] [h] | total protein half-life in vivo [10] [h] | total protein half-life in vivo [11] [h] | total protein half-life in vivo [12] [h]
MQQLQNIIETAFERRAEITPANADTVTREAVNQVIALLDSGALRVAEKIDGQWVTHQWLKKAVLLSFRINDNQVIEGAESRYFDKVPMKFADYDEARFQKEGFRVVPPAAVRQGAFIARNTVLMPSYVNIGAYVDEGTMVDTWATVGSCAQIGKNVHLSGGVGIGGVLEPLQANPTIIEDNCFIGARSEVVEGVIVEEGSVISMGVYIGQSTRIYDRETGEIHYGRVPAGSVVVSGNLPSKDGKYSLYCAVIVKKVDAKTRGKVGINELLRTID [P0A9D8] | 4.878 ± 0.043 | 4.24 ± 0.13 | 4.13 ± 0.23 | 4.507 ± 0.042 | 4.12 ± 0.12 | 2.97 ± 0.074 | 5.34 ± 0.39 | 9.591 ± 0.062 | 4.19 ± 0.11 | 6.89 ± 0.2 | 5.91 ± 0.12 | 11 ± 0.57
MQRKTLLSACIALALSGQGWAADITEVETTTGEKKNTNVTCPADPGKLSPEELKRLPSECSPLVEQNLMPWLSTGAAALITALAVVELNDDDDHHHRNNSPLPPTPPDDESDDTPVPPTPGGDEIIPDDPDDTPTPPKPVSFNNDVILDKTEKTLTIRDSVFTYTENADGTISLQDSNGRKATINLWQIDEANNTVALEGVSADGATKWQYNHNGELVITGDNATVNNNGKTTVDGKDSTGTEINGNNGKVIQDGDLDVSGGGHGIDITGDSATVDNKGTMTVTDPESMGIQIDGDKAIVNNEGESTITNGGTGTQINGDDATANNNGKTTVDGKDSTGTEINGNNGKVIQDGDLDVSGGGHGIDITGDSATVDNKGTMTVTDPESIGIQVDGDQAVVNNEGESAITNGGTGTQINGDDATANNNGKTTVDGKDSTGTEIAGNNGKVIQDGDLDVSGGGHGIDITGDSATVDNKGTMTVTDPESIGIQIDGDQAIVNNEGESTITNGGTGTQINGNDATANNSGKTTVDGKDSTGTKIAGNIGIVNLDGSLTVTGGAHGVENIGDNGTVNNKGDIVVSDTGSIGVLINGEGATVSNTGDVNVSNEATGFSITTNSGKVSLAGSMQVGDFSTGVDLNGNNNSVTLAAKDLKVVGQKATGINVSGDANTVNITGNVLVDKDKTADNAAEYFFDPSVGINVYGSDNNVTLDGKLTVVSDSEVTSRQSNLFDGSAEKTSGLVVIGDGNTVNMNGGLELIGEKNALADGSQVTSLRTGYSYTSVIVVSGESSVYLNGDTTISGEFPLGFAGVIRVQDKALLEIGSGATLTMQDIDSFEHHGTRTLDLPLYFQTSVIT |  |  |  |  |  |  |  |  |  |  |  | 11 ± 1.1
MQRRDFLKYSVALGVASALPLWSRAVFAAERPTLPIPDLLTTDARNRIQLTIGAGQSTFGGKTATTWGYNGNLLGPAVKLQRGKAVTVDIYNQLTEETTLHWHGLEVPGEVDGGPQGIIPPGGKRSVTLNVDQPAATCWFHPHQHGKTGRQVAMGLAGLVVIEDDEILKLMLPKQWGIDDVPVIVQDKKFSADGQIDYQLDVMTAAVGWFGDTLLTNGAIYPQHAAPRGWLRLRLLNGCNARSLNFATSDNRPLYVIASDGGLLPEPVKVSELPVLMGERFEVLVEVNDNKPFDLVTLPVSQMGMAIAPFDKPHPVMRIQPIAISASGALPDTLSSLPALPSLEGLTVRKLQLSMDPMLDMMGMQMLMEKYGDQAMAGMDHSQMMGHMGHGNMNHMNHGGKFDFHHANKINGQAFDMNKPMFAAAKGQYERWVISGVGDMMLHPFHIHGTQFRILSENGKPPAAHRAGWKDTVKVEGNVSEVLVKFNHDAPKEHAYMAHCHLLEHEDTGMMLGFTV |  | 5.63 ± 0.14 | 6.68 ± 0.32 | 6.57 ± 0.91 | 5.62 ± 0.1 | 2.84 ± 0.38 | 5.977 ± 0.041 | 11.2 ± 1.3 | 5.944 ± 0.022 | 13.8 ± 1 | 5.657 ± 0.043 | 14.4 ± 1.6
MQSDKVLNLPAGYFGIVLGTIGMGFAWRYASQVWQVSHWLGDGLVILAMIIWGLLTSAFIARLIRFPHSVLAEVRHPVLSSFVSLFPATTMLVAIGFVPWFRPLAVCLFSFGVVVQLAYAAWQTAGLWRGSHPEEATTPGLYLPTVANNFISAMACGALGYTDAGLVFLGAGVFSWLSLEPVILQRLRSSGELPTALRTSLGIQLAPALVACSAWLSVNGGEGDTLAKMLFGYGLLQLLFMLRLMPWYLSQPFNASFWSFSFGVSALATTGLHLGSGSDNGFFHTLAVPLFIFTNFIIAILLIRTFALLMQGKLLVRTERAVLMKAEDKE |  |  |  |  | 6.2 |  | > 8 |  |  |  | 6.53 | 
MQSLHGNCLIAYARHKYILTMVNGEYRYFNGGDLVFADASQIRVDKCVENFVFVSRDTLSLFLPMLKEEALNLHAHKKVSSLLVHHCSRDIPVFQEVAQLSQNKNLRYAEMLRKRALIFALLSVFLEDEHFIPLLLNVLQPNMRTRVCTVINNNIAHEWTLARIASELLMSPSLLKKKLREEETSYSQLLTECRMQRALQLIVIHGFSIKRVAVSCGYHSVSYFIYVFRNYYGMTPTEYQERSAQRLSNRDSAASIVAQGNFYGTDRSAEGIRL | 6.49 ± 1 | 1.14 |  |  |  |  |  |  |  |  |  | 
MQSVTPTSQYLKALNEGSHQPDDVQKEAVSRLEIIYQELINSTPPAPRTSGLMARVGKLWGKREDTKHTPVRGLYMWGGVGRGKTWLMDLFYQSLPGERKQRLHFHRFMLRVHEELTALQGQTDPLEIIADRFKAETDVLCFDEFFVSDITDAMLLGGLMKALFARGITLVATSNIPPDELYRNGLQRARFLPAIDAIKQHCDVMNVDAGVDYRLRTLTQAHLWLSPLHDETRAQMDKLWLALAGGKRENSPTLEINHRPLATMGVENQTLAVSFTTLCVDARSQHDYIALSRLFHTVMLFDVPVMTRLMESEARRFIALVDEFYERHVKLVVSAEVPLYEIYQGDRLKFEFQRCLSRLQEMQSEEYLKREHLAG | 3.66 ± 0.54 | 2.97 ± 0.16 | 3.35 ± 0.15 | 2.58 | 3.103 ± 0.03 | 2.72 ± 0.05 | 5.71 ± 0.58 | 9.73 ± 1.3 | 3.4 ± 0.15 | 5.55 ± 0.15 | 5.25 ± 0.66 | 9.34 ± 1.1
MQTFQADLAIVGAGGAGLRAAIAAAQANPNAKIALISKVYPMRSHTVAAEGGSAAVAQDHDSFEYHFHDTVAGGDWLCEQDVVDYFVHHCPTEMTQLELWGCPWSRRPDGSVNVRRFGGMKIERTWFAADKTGFHMLHTLFQTSLQFPQIQRFDEHFVLDILVDDGHVRGLVAMNMMEGTLVQIRANAVVMATGGAGRVYRYNTNGGIVTGDGMGMALSHGVPLRDMEFVQYHPTGLPGSGILMTEGCRGEGGILVNKNGYRYLQDYGMGPETPLGEPKNKYMELGPRDKVSQAFWHEWRKGNTISTPRGDVVYLDLRHLGEKKLHERLPFICELAKAYVGVDPVKEPIPVRPTAHYTMGGIETDQNCETRIKGLFAVGECSSVGLHGANRLGSNSLAELVVFGRLAGEQATERAATAGNGNEAAIEAQAAGVEQRLKDLVNQDGGENWAKIRDEMGLAMEEGCGIYRTPELMQKTIDKLAELQERFKRVRITDTSSVFNTDLLYTIELGHGLNVAECMAHSAMARKESRGAHQRLDEGCTERDDVNFLKHTLAFRDADGTTRLEYSDVKITTLPPAKRVYGGEADAADKAEAANKKEKANG | 5.99 ± 0.19 | 5.68 ± 0.083 | 6.59 ± 0.5 | 6.24 ± 0.66 | 5.45 ± 0.11 | 2.97 ± 0.033 | 6.38 ± 0.42 | 12.1 ± 1.9 | 6.2 ± 0.28 | 11.3 ± 1.7 | 6.03 ± 0.064 | 13.4 ± 0.38
MQTQIKVRGYHLDVYQHVNNARYLEFLEEARWDGLENSDSFQWMTAHNIAFVVVNININYRRPAVLSDLLTITSQLQQLNGKSGILSQVITLEPEGQVVADALITFVCIDLKTQKALALEGELREKLEQMVK | 4.69 ± 0.88 | 3.29 ± 0.61 | 3.46 ± 0.25 |  | 3.35 ± 0.049 | 3.22 ± 0.17 | 5.29 ± 0.48 | 7.87 ± 0.63 | 3.29 ± 0.11 | 4.77 ± 0.72 | 5.365 ± 0.043 | 9.67 ± 0.54
